B1: EHEE_rd4_0086 (parent)
chain: EIHIRTNGEEQARKVYKMLAKRNYDVKIEQHNGQWVVTAS

Variants of: B1
Test: folding stability dG (cDNA display proteolysis); higher = more stable
Settings: PBS, room temperature

Row | Variant | folding stability dG [kcal/mol]
1 | EIHIRTNGEEQARKVYKMLAKRNYDVKIEQHNWQWVVTAS | 0.42
2 | EIHIRTNGEEQARKVYKMLAKRNYDVKIEQHNEQWVVTAS | 1.21
3 | EIHIRTNGEEQARKVYKMLAKRNYDVKIEQHNVQWVVTAS | 0.374
4 | EIHIRTNGEEQARKVYKMLAKRNYDVKIEQHNFQWVVTAS | 0.875
5 | EIHIRTNGEEQARKVYKMLAKRNYDVKIEQHNGQWVVTYS | 2.29
6 | EIHIRTNGEEQARKVYKMLAKRNYDVKIEQHNGQWVVTRS | 0.961
7 | EIHIRTNGEEQARKVYKMLAKRNYDVKIEQHNGQWVVTKS | 0.724
8 | EIHIRTNGEEQARKVYKMLAKRNYDVKIEQHNGQWVVTNS | 0.642
9 | EIHIRTNGEEQARKVYKMLAKRNYDVKIEQHNGQWVVTWS | 2.2
10 | EIHIRTNGEEQARKVYKMLAKRNYDVKIEQHNGQWVVTSS | 1.21
11 | EIHIRTNGEEQARKVYKMLAKRNYDVKIEQHNGQWVVTES | 0.112
12 | EIHIRTNGEEQARKVYKMLAKRNYDVKIEQHNGQWVVTDS | 0.179
13 | EIHIRTNGEEQARKVYKMLAKRNYDVKIEQHNGQWVVTFS | 2.32
14 | EIHIRTNGEEQARKVYKMLAKRNYDVKIEQHNGQWVVTVS | 2.51
15 | EIHIRTNGEEQARKVYKMLAKRNYDVKIEQHNGQWVVTHS | 1.11
16 | EIHIRTNGEEQARKVYKMLAKRNYDVKIEQHNGQWVVTQS | 0.463
17 | EIHIRTNGEEQARKVYKMLAKRNYDVKIEQHNGQWVVTTS | 1.41
18 | EIHIRTNGEEQARKVYKMLAKRNYDVKIEQHNGQWVVTIS | 2.85
19 | EIHIRTNGEEQARKVYKMLAKRNYDVKIEQHNGQWVVTGS | 1.44
20 | EIHIRTNGEEQARKVYKMLAKRNYDVKIEQHNGQWVVTPS | 0.297
21 | EIHIRTNGEEQARKVYKMLAKRNYDVKIEQHNGQWVVTLS | 2.36

Row | Variant | folding stability dG [kcal/mol]
22 | EIHIRTNGEEQARKVYKMLAKRNYDVKIEQHNGQWVVTMS | 1.98
23 | EIHIRTNGEEQARKVYKMLAKRNYDVKIEQHNGQWVWTAS | -0.025
24 | EIHIRTNGEEQARKVYKMLAKRNYDVKIEQHNGQWVFTAS | -0.019
25 | EIHIRTNGEEQARKVYKMLAKRNYDVKIEQHNGQWVMTAS | 0.044
26 | EIHIRTNGEEQARKVYKMLAKRNYDVKIEQHNGQWVITAS | 1.79
27 | EIHIRTNGEEQARKVYKMLAKRNYDVKIEQHNGQWVLTAS | 0.844
28 | EIHIRTNGEEQARKVYKMLAKRNYDVKIEQHNGQWVVTAP | 1.16
29 | EIHIRTNGEEQARKVYKMLAKRNYDVKIEQHNGQWVVTAQ | 1.57
30 | EIHIRTNGEEQARKVYKMLAKRNYDVKIEQHNGQWVVTAE | 1.02
31 | EIHIRTNGEEQARKVYKMLAKRNYDVKIEQHNGQWVVTAD | 0.806
32 | EIHIRTNGEEQARKVYKMLAKRNYDVKIEQHNGQWVVTAV | 1.98
33 | EIHIRTNGEEQARKVYKMLAKRNYDVKIEQHNGQWVVTAA | 1.54
34 | EIHIRTNGEEQARKVYKMLAKRNYDVKIEQHNGQWVVTAH | 1.77
35 | EIHIRTNGEEQARKVYKMLAKRNYDVKIEQHNGQWVVTAL | 1.78
36 | EIHIRTNGEEQARKVYKMLAKRNYDVKIEQHNGQWVVTAT | 2.08
37 | EIHIRTNGEEQARKVYKMLAKRNYDVKIEQHNGQWVVTAF | 2.04
38 | EIHIRTNGEEQARKVYKMLAKRNYDVKIEQHNGQWVVTAW | 2.2
39 | EIHIRTNGEEQARKVYKMLAKRNYDVKIEQHNGQWVVTAN | 1.65
40 | EIHIRTNGEEQARKVYKMLAKRNYDVKIEQHNGQWVVTAG | 1.33
41 | EIHIRTNGEEQARKVYKMLAKRNYDVKIEQHNGQWVVTAK | 2.19
42 | EIHIRTNGEEQARKVYKMLAKRNYDVKIEQHNGQWVVTAR | 2.25

Row | Variant | folding stability dG [kcal/mol]
43 | EIHIRTNGEEQARKVYKMLAKRNYDVKIEQHNGQWVVTAM | 1.81
44 | EIHIRTNGEEQARKVYKMLAKRNYDVKIEQHNGQWVVTAY | 1.96
45 | EIHIRTNGEEQARKVYKMLAKRNYDVKIEQHNGQWVVTAI | 2.05
46 | EIHIRTNGEEQARKVYKMLAKRNYDVKIEQHNGVWVVTAS | 2.27
47 | EIHIRTNGEEQARKVYKMLAKRNYDVKIEQHNGGWVVTAS | 1.58
48 | EIHIRTNGEEQARKVYKMLAKRNYDVKIEQHNGKWVVTAS | 1.61
49 | EIHIRTNGEEQARKVYKMLAKRNYDVKIEQHNGMWVVTAS | 2.09
50 | EIHIRTNGEEQARKVYKMLAKRNYDVKIEQHNGRWVVTAS | 1.59
51 | EIHIRTNGEEQARKVYKMLAKRNYDVKIEQHNGSWVVTAS | 1.67
52 | EIHIRTNGEEQARKVYKMLAKRNYDVKIEQHNGDWVVTAS | 1.51
53 | EIHIRTNGEEQARKVYKMLAKRNYDVKIEQHNGIWVVTAS | 2.27
54 | EIHIRTNGEEQARKVYKMLAKRNYDVKIEQHNGTWVVTAS | 1.95
55 | EIHIRTNGEEQARKVYKMLAKRNYDVKIEQHNGHWVVTAS | 2.04
56 | EIHIRTNGEEQARKVYKMLAKRNYDVKIEQHNGEWVVTAS | 1.87
57 | EIHIRTNGEEQARKVYKMLAKRNYDVKIEQHNGFWVVTAS | 2.5
58 | EIHIRTNGEEQARKVYKMLAKRNYDVKIEQHNGLWVVTAS | 1.86
59 | EIHIRTNGEEQARKVYKMLAKRNYDVKIEQHNGYWVVTAS | 2.55
60 | EIHIRTNGEEQARKVYKMLAKRNYDVKIEQHNGNWVVTAS | 1.52
61 | EIHIRTNGEEQARKVYKMLAKRNYDVKIEQHNGAWVVTAS | 1.77
62 | EIHIRTNGEEQARKVYKMLAKRNYDVKIEQHNGWWVVTAS | 2.31
63 | EIHIRTNGEEQARKVYKMLAKRNYDVKIEQHNGPWVVTAS | -0.941

Reference: the MegaScale stability set (Tsuboyama et al. 2023)
